Assay [1] deals with T1, Cynomolgus monkey full-length B7H3 on transfected FlpinCHO cells (cynomolgus monkey).
T1 construct: whole, on cells; also called W3XX088-FlpinCHO.cProl.pool
Briefly: FACS on cynomolgus monkey B7H3-transfected FlpinCHO cell pool. As to the method:
FACS was used to detect the binding of antibodies to cynomolgus monkey B7H3. FlpinCHO cells were transfected with cynomolgus monkey B7H3 (W3XX088-FlpinCHO.cProl.pool) (1×10⁵ cells/well), and the transfected cells were incubated with various concentrations of antibodies (3.16-fold serially diluted with 1×DPBS/1% BSA from 50 nM to 0.0005 nM) in a volume of 100 μL/well in a refrigerator set to 4° C. for 1 h. Anti-human B7H3 reference antibody enoblituzumab (MacroGeneics) was used as a positive control. Human IgG1 isotype antibody was used as a negative control. After washing the cells with 1×DPBS/1% BSA, Alexa 647 goat anti-human antibody (diluted in a 1:500 ratio in 1×DPBS/1% BSA) was added. The cells were incubated in a refrigerator set to 4° C. for 0.5 h in the dark. The mean fluorescence intensity (MFI) of the cells was measured by a flow cytometry and analyzed by FlowJo. EC₅₀ values were calculated by four-parameter non-linear regression analysis using GraphPad Prism 7 software.

Assay [2] deals with T2, Human BTNL2 protein, His Tag (human, UniProt Q9UIR0-1 24-455, limits assumed).
T2 construct: Bought protein; also called AtaGenix ATMP02212HU; not shown: His tag
T2 sequence (looked up): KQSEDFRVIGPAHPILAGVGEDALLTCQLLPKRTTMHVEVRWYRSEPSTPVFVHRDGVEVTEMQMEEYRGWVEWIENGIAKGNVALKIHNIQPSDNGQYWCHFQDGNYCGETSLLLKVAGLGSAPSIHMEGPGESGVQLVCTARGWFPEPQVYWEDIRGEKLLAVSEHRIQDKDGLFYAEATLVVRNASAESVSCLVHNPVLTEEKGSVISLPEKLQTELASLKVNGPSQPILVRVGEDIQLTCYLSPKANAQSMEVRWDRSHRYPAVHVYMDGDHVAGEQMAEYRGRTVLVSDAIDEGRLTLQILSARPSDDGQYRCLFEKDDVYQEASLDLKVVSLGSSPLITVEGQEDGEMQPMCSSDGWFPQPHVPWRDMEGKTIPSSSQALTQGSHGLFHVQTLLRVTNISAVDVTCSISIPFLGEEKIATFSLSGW
Description: ELISA, protein immobilized on plate, serially diluted antibody. As to the method:
(§1) Human PD-L1 protein (see the table above), human B7-H2 protein, human B7-H3 protein, human B7-H4 protein, human B7-H5 protein, human B7-H6 protein, human B7-1 protein, human B7-2 protein, human PD-L2 protein, human B7-H7 protein, and human BTNL2 protein were separately immobilized on 96-well plates by incubation at 4° C. overnight. The 96-well plates were then blocked by incubation with 1% BSA in PBS at 37° C. for 1 h. After blocking, the 96-well plates were washed 3 times with PBST (PBS containing 0.05% Tween 20). […] After incubation, the 96-well plates were washed 3 times with PBST, incubated with a secondary antibody (see the table above) in binding buffer at 37° C. for 1 h, and then washed again. TMB was added for color development, and the reaction was stopped by 1 M H₂SO₄.

Assay [3] deals with T3, Human B7-H3(4Ig), His Tag (human, UniProt Q5ZPR3 29-461).
T3 construct: also called recombinant human B7H3 antigen; human B7-H3 protein; not shown: His tag
T3 sequence (looked up): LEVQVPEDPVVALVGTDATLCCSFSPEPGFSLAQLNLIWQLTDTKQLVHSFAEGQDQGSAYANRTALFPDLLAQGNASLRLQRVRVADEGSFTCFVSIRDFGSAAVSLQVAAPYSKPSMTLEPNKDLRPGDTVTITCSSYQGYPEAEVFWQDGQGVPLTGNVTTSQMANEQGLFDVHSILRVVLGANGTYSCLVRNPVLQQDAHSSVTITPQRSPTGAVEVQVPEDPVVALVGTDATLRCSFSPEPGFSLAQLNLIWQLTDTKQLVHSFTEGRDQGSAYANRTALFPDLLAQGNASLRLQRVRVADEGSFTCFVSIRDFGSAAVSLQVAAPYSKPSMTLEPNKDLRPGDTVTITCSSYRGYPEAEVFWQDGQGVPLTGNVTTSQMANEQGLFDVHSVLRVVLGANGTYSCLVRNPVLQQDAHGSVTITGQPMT
Briefly: ELISA, plate coated with 2 µg/mL recombinant human B7-H3 (4Ig), serially diluted antibody, HRP anti-human secondary antibody, OD450. The procedure: A 96-well ELISA plate was coated with 2 μg/mL recombinant human B7H3 antigen (see the table above) at 30 μL/well and kept at 4° C. overnight. The following day, the well plate was washed 3 times with PBST and then blocked with 5% skim milk for 2 h. […] The plate was then washed 3 times with PBST, and an HRP-labeled anti-human secondary antibody diluted in a 1:5000 ratio was then added at 100 μL/well and incubated for 1 h. After the incubation was complete, the plate was washed six times with PBST, and TMB (SurModics, TMBS-1000-01) was added for color development. Based on the results of the color development, the reaction was stopped by adding 2M HCl, and the plate was read by a microplate reader (Molecular Devices, SpecterMax 190) at OD450.
In general terms: An ELISA detects its analyte on a solid surface through an enzyme-linked reagent.

The target in assay [4] is T2, Human BTNL2 protein, His Tag. Briefly: ELISA, protein immobilized on plate, serially diluted antibody-drug conjugate. The procedure:
as §1

Broadly, the EC50 is the midpoint of the concentration-response curve. In general, EC50 (read off the curve) refers to the concentration giving half of the maximal effect.

B1: Enoblituzumab (MacroGenics) (antibody, V domains shown)
VH: EVQLVESGGGLVQPGGSLRLSCAASGFTFSSFGMHWVRQAPGKGLEWVAYISSDSSAIYYADTVKGRFTISRDNAKNSLYLQMNSLRDEDTAVYYCGRGRENIYYGSRLDYWGQGTTVTVSS
VL: DIQLTQSPSFLSASVGDRVTITCKASQNVDTNVAWYQQKPGKAPKALIYSASYRYSGVPSRFSGSGSGTDFTLTISSLQPEDFATYYCQQYNNYPFTFGQGTKLEIKR
B1 registered an EC50 in assay [1] of 9.58 nM.

B2: W301088-1.145.16-z3-p1-uIgG1KV320 (antibody, V domains shown)
VH: QVQLQESGPGLVKPSQTLSLTCTVTDYSITGDYAWNWIRQHPGKGLEWIGYISYSGSTSYNPSLQSRVTISRDTSKNQFSLKLSSVTAADTAVYFCARSLGRRWYFVVWGQGTTVTVSS
VL: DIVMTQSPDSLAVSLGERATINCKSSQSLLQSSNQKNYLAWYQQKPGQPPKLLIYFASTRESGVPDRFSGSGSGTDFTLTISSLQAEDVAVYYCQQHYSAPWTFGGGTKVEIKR
notes: Humanized, PTM-removed (VL N027dQ) antibody; human IgG1 LALA, kappa; also called WBP301088; W301088-z3-p1
Molecule B2 returned a 50% effective concentration (EC50) in assay [1] of 4.68 nM. In addition, the binding result in assay [2] was “no binding”. In assay [3], the “EC50 (read off the curve)” value was roughly 0.1 µg/mL.

B3: Antibody-drug conjugate WBP301088-X2 (DAR6) (antibody, human IgG1, kappa, L234A L235A, V domains shown)
VH: B2 VH
VL: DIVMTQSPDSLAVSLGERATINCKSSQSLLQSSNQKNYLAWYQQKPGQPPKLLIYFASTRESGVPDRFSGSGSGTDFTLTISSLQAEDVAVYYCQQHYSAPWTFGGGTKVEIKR
modifications: linker-payload X2 conjugated after TCEP reduction; drug loading (DAR) 5.68 per antibody; sites not stated
With B3, the binding result in assay [4] is “no binding”.

B4: W301088-1.145.16-xIgG1KV320 (antibody, V domains shown)
VH: DVQLQESGPGLVKPSQSLSLTCTVTDYSITGDYAWNWIRQFPGNKLEWMGYISYSGSTSYNPSLQSRISITRDTSKNQFFLQLNSVTSEDTATYFCARSLGRRWYFVVWGAGTTVTVSA
VL: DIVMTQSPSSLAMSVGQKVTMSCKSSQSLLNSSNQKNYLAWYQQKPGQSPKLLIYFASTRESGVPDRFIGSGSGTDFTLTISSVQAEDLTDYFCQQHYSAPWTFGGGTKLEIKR
As to B4, in assay [1], the 50% effective concentration (EC50) worked out at 5.25 nM.

These data come from patent US20260224723A1 (DUALITY BIOLOGICS SUZHOU, published 2026).
